One molecule from patent US20260184779A1 (XBIOTECH, published 2026) can be followed below.

The target in this assay is T1, recombinant human interleukin 1 alpha (IL-1α) (human, UniProt P01583 113-271).
T1 sequence (looked up): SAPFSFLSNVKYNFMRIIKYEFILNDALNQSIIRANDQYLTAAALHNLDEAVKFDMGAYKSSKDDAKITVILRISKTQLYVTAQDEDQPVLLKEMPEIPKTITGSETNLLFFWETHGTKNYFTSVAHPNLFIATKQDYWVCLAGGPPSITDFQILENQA
The assay can be described thus: cell-based or functional assay.

B1: human monoclonal antibody designated XIA13 (antibody, V domains shown)
VH: QVQLVQSGAEVKKPGSSVKVSCKASGGRFTNYAILWVRQAPGQGLQWLGGIIPIFDETDHAQDFQDRLTITVDESMTTAYMELSSLRPEDTAIYYCATGSNSYYGLYWGQGTLVTVSS
VL: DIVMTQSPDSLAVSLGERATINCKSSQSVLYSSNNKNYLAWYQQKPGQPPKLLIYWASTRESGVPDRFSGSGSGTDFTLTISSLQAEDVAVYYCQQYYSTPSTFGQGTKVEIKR
Regarding B1, the “HUVEC-based potency assay: ICAM-1 expression on HUVEC cells by flow cytometry, IC50” value was 3.7 ng/mL.
